Test results from a protein production outcome set (Wang et al. 2014).

Assay: label from the status in PepcDB records

For “MADETNALRQKNRELNKKIDWQKDYDREKLERDNRDLEQCKEDLLAANENLRNRIQEWENEKNKLDPRDERIKELEEEKRELEGILAQKENAEQKYNTLSVKNKQLEAELDMLNEKFEKLKNMYAGVEDFEKRQKNIKEQIVKTNPKVLGAPSNEVEELAFLERIEKGMQEFNVFYPKRLLYMFHTALKSTSLSPLSVLSGVSGTGKSELPKLYVHFGGLNFLSIAVQPTWDSPESLMGYFHAIENKFDATEFLRFFIQTTLSNNEEPYGLKEAMSIVLLDEMNLAHIELYFAEFLSKLEIKCSQETNISIKLGTGLTWELPLGDNLLFVGTMNEDESTKMLSDKVLDRAFCLNFERPKILKGKQQKPIPSNDGYLKVETFNRWINKKGDQEAKLEGKYKKLTEEINERLDACGRSIGHRVWQSMSTYMHNHPLVLHASDKNKALQFAYEECLVLKIFPKLRGVQTRNNQHLTKIQDLLKDFSVSSDFKQAMENDFKEFVFNSTNYLNNVEYEKLLKK”, the protein production was “failed”.

In the case of “MLIINGKIIPIAHTICAFSAFFAALVTGYSLHFHKIVTNAHYTYPDEWFPSVSATIGDRYPERSIFQILIALTAFPRFLLLLGHYYLNQSKVCFLVGVLRTVSCGGWVYITSTDDHDIHDIFMITYIVLTLPWDIMITRYSSPLTSKNKGLTATIFFGTLFPMIYWYIQHSVQQRAGAYSIYAYFEWSLILLDIAFDAFAYADFKKIDIVLAFNEKPGNTSFFQIRDSSPINYGEEKSSELQKSGEKKVEKEKPVARSATGSYFRFDSFFYLLTNIFNGFLFWSNVTSLLCSIWHFPLWYMGISGYEAAILGYLGPIFLYLPFVSEAFTQYGVLLGGIIAIGAYIVQMPELRLISVAVGTSITVATFVQNLRYITNAETSFSFALTWLLGLVASVILKMGFYTNNPTWVILDERNGGYNKTALVLTVLFGMLSPYVNSINFEGKRNAQAKSASLIGKLFLAVGFGSLLFGIHQLLTDSSTTIYWAWEGYNESHGPLPWPWGALTCTVMLFASLSSVKFMGKPLVPCLLLLISTAVLSARSITQWPKYIFGGLLYAIAMLWLVPSYFSALGQVQNIWVYVLSFSVYIIFVLAHVWVVAYAFVPMGWVLREKIETVLAFSSTFIIIGALTCKNLNIQLVTMGKKFFIYVFFFAVALLSLTARFVYDIRPTGIPQPYHPDSQLITAGIWTIHFGLDNDMWASEDRMINLIKDMELDVVGLLETDTQRITMGNRDLTSKLAHDLNMYADFGPGPNKHTWGCVLLSKFPIVNSTHHLLPSPVGELAPAIHATLQTYNDTLVDVFVFHSGQEEDEEDRRLQSNYMAKLMGNTTRPAILLSYLVVDPGEGNYNTYVSETSGMHDIDPSDDDRWCEYILYRGLRRTGYARVARGTITDTELQVGKFQVLSEQALVEHSDSMYEYGHMSEPEYEDMKFPDKFLGEGERGHFYHVFDEPRYYL”, the protein production was “failed”.

In the case of “MLIVGLNGSPKKDGNTAFLVREGLAAAAAAGAETALIHIADAMADQKIPYCTQCSNPCQGACSRHNRLGEAFDLLRRADGLLLGSPVYFGSVSAQLKAFWDKSRILRKEKALLNVVGAGVTVGGARFGGQETTMKALFDMMLVQGMILVGDGHTEADCGHQGSCGQAPASSDEFAIRRVRLAGRRLAEVAAATMTLRRHRA”, the protein production was “failed”.

In the case of “ESICLIGHSLGGDLARYFASEFEEVKKLILLDGGYLDLDKILPLDTELEETKNYIKSQIVSDLDVLTSKEKSEAKHWSENMEKAVRQSYHWNVEYNRYELAINYENIEAILRLRRKIQAFKREVGDTLFISPRYPNEATWREEALKELPDYFDTIFLENFGHELYTQAPKEIASLMNEWL”, the protein production was “failed”.

For “MIDNENNVNEPAEEESFAELFEKSNRRTERLRPGSKVDARVLKIGAEWVFLDIGSKGEGVMERKELLDKDGNLTVAEGDTIPVWFVKVERNEMRFTTKVGTGQAGLSALEDAYRAGIPVEGNVEKEIKGGFEIKVGGTVRAFCPYSQISLRRAANPAEFVGRQLLFKVVEFAERGRNIVLSHRAILEEEERQKREALKDTLKEGTTLTGTVTRLMPFGAFVDIGGVEGLIPISEAGWSRVKEIGDVLSVGEQVTALVKRIDWENNKISLSLRDVQADPWEGIAERFPEGSYHTGTVARLAPFGAFVTLAPGIDGLIHISKLGAGKRIAHPREVLKEGDAVEVTVEGVDRESRRLSLALAATKRAAEEEERSIAEFRGKGAAQTKDSMGTFGDILKAQLDDKK”, the protein production was “failed”.

In the case of “LDNRFNYINVPGLGGSGEHHWQTFWEQAYPEIHRVQQADWDHPICSVWVNKLQLITETCSDKPVVLIAHSLGCVTVLHAVAQRKLKGIAGAFLVAMPDAERADFPKECIGFIPVPRIVLPFPAVMIASENDPYITSPELKKWADVIQASFVSVGQRGHIGTAAQLTYWEEGQQLFRSFVEQL”, the protein production was “failed”.

With “MSAPCCGCGKTLDVAAMHARQRRVLWWVLAINAGSFALMLAGALHSGAASLLSGSLDNLGDALTYALSLAVVGASMAAKARVALLKAGLILLAALAVAAEIGWKLAHPQVPLFQSMGLVAAANFLANLVCLRLLWPYRDGDINLASAWACSRNDVYEGVAVLAASGAVWALGSGWPDLLIAVGLLVVFLRSAWQVARRAWAELGTAG” the protein production was “failed”.

In the case of “MKIRFISLASGSSGNCYYLGTEKYGILIDAGIGIRTIKKSLKDINVTMDSIRAVFITHDHADHIKAVGHLGEKLNIPVYTTARVHAGINKSYCMTEKLHGSVRYLEKEEPMLLEDFRIESFEVPHDGTDNVGYCIEIDGKVFSFLTDLGEITPTAARYICKAHYLIIEANYDEEMLRMGPYPTYLKERISSKTGHMSNIDTANFLAENIMEHLRYIWLCHLSKDNNHPELAYKTVEWKLKSKGIIVGKDVQLLALKRNTPSELYEFE”, the protein production was “failed”.

With “MEQSFFRELLHYQRPKDNPFRLVFAGLVMFSILFLGYINHQLLISSFGSLGIFTFLYYQPLPLKQLMTRLSVVGSYLFLGNLLGMLSTHIAWLIPIVVALVGFGGRFFFEVYDISKPGAFFGVMVTAMGASTSIPLAKIPFMSGCMLLGIGFSILFALVLHFTEKEISVPLAKRSLRERIYQHPEAPLDSIYYSFVLFFAVYISESLHLQNPYWLVVSCASILQGDNLRAIKQRNIQRIFGTTIGLVISAFLLNLALTTFESIVVITILFVTVEYFIRRNYGLAQFFTTPMALMLSLLVRQQYVITLIQFRFLGIVLGSLLGLSSSVAIHRCSNVL” the protein production was “failed”.

For “PRFLFVHGWGFDRNFWEPVRRAIGQHNGDSLDFGYFGQSKLEYDWSQPFIAVGHSLGFLWLLQQPLAACIQLISINGFSRFFAGSDWPFGVPQRVTKRMQLALHRDAKKTLDQFYETVGFFDTSEKRYDLAALDNGLEFLMTQDNRSIAKKQAHKIAIMASDQDPIVPVSLTKACFPTPTPILWNKDGGHLLPITDPDSCANFIRDVVK”, the protein production was “failed”.

With “MSRSQLTILTNICLIEDLETQRVVMQYRAPENNRWSGYAFPGGHVENDEAFAESVIREIYEETGLTIQNPQLVGIKNWPLDTGGRYIVICYKATEFSGTLQSSEEGEVSWVQKDQIPNLNLAYDMLPLMEMMEAPDKSEFFYPRRTEDDWEKKIF” the protein production was “not failed”.

For “MTKKQKEILFCDYFEEWVEVYKVGAIAKITLAKYYNAAKQLRDLCPKLFISDFDRREYQRIINVYAETHEKQTVKDFHHHVKACIKDLFHDGLIDKDPTYRVVIKGAEPTRAKKRKFLQKEELSKLLQSLDMSQIGFGWFVMLVAKTGMRYAEALAITPADFDWTAQTISINKTWDYKYNKGFAKTKTLSSVRTIKIDWQIVGQFKPLIKDFPEDEPIFVEKFGDGTYKRQFNSTINNFLAVKCNETGITQISFHALRHTHASVLLAEGVSIHTISARLGHADVGVTQETYAHVLDELQKKDDQKMLSVLMQIA”, the protein production was “failed”.

In the case of “MSEYLHIIIWFFLIEALSFISVPFIRSAGNRLADGGYSVSRALGIMLVTYLSWIFSYILGFSFTAVLIAFFLLCSVSIFLYRKQKFFPGRKVLVVNELVFASGFFFFLLVRTYLPEIYRHEKFMDFAFLNAVIRASSFPPQDPWFAGGLMDFYYYFGYLSVAVFGKLSAVKPSILFNLAVALTFALSLNAFFGMGYNLTRGKIRYGILTAVFGMLLGNLQGLIEFVSVYIRHEQALGGYYWSSSRVIPFTINEFPYFSFIHGDLHSHMLAIPFQLLVLAFLLNMHFRKNEDSIFENSLALLMFSMSLGFLFPFNSWDFPVYFGLAFLVIFAFYCGDYVHNRNLFAAVAKFSNSMIFISIFSFLPYLLFYLDFNPQAAGGFDFVLPELRTETDRFLILFGLFLFLVFSFLITRLDSRRKIVFFVLLAGVSALLSKAWSIPLLAVLLPVFVFSLLLFLKDIPERSASGFVYLLISAASFIALLCEVIFLDDPISGEFARMNTVFKFYMHLWIFLAISAAYSYYDLNSHYAARSGNRKTLKQFVKKGWSVILVILIICCAIFPAVSTVTRIKEMNAEPSLDGMEYMRELDRGDYNAIRWMQANIKGSPVILETSEDDSSYSYACRVSSNTGIPAVIGWARHERFWGRDHEEVKKRIGDVSLIYSTGSEEEAIELIEKYNVTYVYIGTLERQVYDVNTKKFENKAYFEPVYEGSATIYKLKKKP”, the protein production was “failed”.

For “ISEWARKEQAIRNSEANFRDIFASIKDGLLVLDEDNYICYANAQAVKLLNCTLEELVGTIGSPLEDTEFSLLVDDGTIYTVDVSVTEITWYGQTAKLVSLRDISDRKRMENQLRENQNKYYRLLENLD”, the protein production was “failed”.

In the case of “MTTSKVTYQGDLRTSAIHLQSNNEIITDAPVDNQGKGEAFSPTDLLATSLASCMLTIIGIKARDMEIDIAGTTAEVTKVMAADPRRVSEVHIAITFNQELDDKTQKIFYNTALTCPVAKSIHPDIFQKVIIHSKSY”, the protein production was “not failed”.

For “RSTIGAGQKVNVEFVSANPTGPMHVGHVRGAVVGDALARLLAYAGWNVTREYYINDGGAQVDVLARSAFERYREAHGLEPEIREGLYPGDYLIPVGEALKAKYGDSLLDKGEQHWLTEVREFATEMMMQMIREDLAALGVEMDVYSSEKALYGTGKIEAALDRLKEMDLIYEGVLEPPKGKTPEDWEPREQTLFRSTAHGDDVDRPVKKSDGSWTYFAPDIAYHYDKVTRGFDQLIDIFGADHGGYVKRMKAAVAALSAGRVPLDIKLIQLVKLWKNGEPFKMSKRAGTYVTLRDVVEQVGTDVTRFVMLTRKNDATLDFDFDKVLEQSKENPVFYVQYANARINSVLRKAREQGMDVSDA”, the protein production was “failed”.

For “MQKFLDWLERVLTPLAKVIGENKYLVAIRDGFLLSTPLLIVGSVFLLIANFPLPQWDTWMSHLLGKDWATMMSVPASASFDVMTILAVVGIAYSLGKQFNVDAMQAGIIALVSFFIVTPYQTLFTPENSSKVYEVTSLPLKWMGSSGLFLGMIVALIATRLFVAIVRKGWTIKMPEGVPPTVVKSFEALIPSFLVVTLMFLVNWLAALTPYGNLQDVIFEFLQTPLLSLGNTLGAMSIAYLFLHFFWFFGINGGSVVGAVFNPVLRALSVENLQAFKDGHEIPNIITGQFQDMFATFGGAGSTLSLIIVMVLFCKSQRIKKLSQLSLIPGVFGINEPIIFGLPIVLNPILLIPFVLVPAINIIIAYFAMDWGLVPLTNGIQLPWTTPPIISGFLVSGWQGSILQALLLVLGMFIYYPFIRVMDDQYLREEWKAQEEESEEIDFDSFDFDDL”, the protein production was “failed”.

In the case of “MPKKYDEATKSKAVRLVVDHRDEYDSEYGCIRAVATRIGVGPETLRKWVRQAEIDGGERDGVTTATNRENRELKRKVAELEQTVEMLRAATTFFVRESDPRHR”, the protein production was “failed”.

For “MTKYLKYFIISMFRSRGLIFFGLFLILLSLIPNMLSISDSAHYSLKVLNHASRWYGLAILISFSIVSGTLAQMIYFSSSAIIYLHRHSKLSINRYYFESTLGAMVIFGIYALIILFATIVGYSYVSKNIIFPKKLLMLVLFTMLAGLFYFSLSFSLQAIATLLKKAHLIEYLAYFLISLTFLLGYLQVNTSLDVSLLVFLSPLNSILSLLIYGYSGILSFSVEFLLVTSLFYITVLQLISVWSLKRLKEVRIEDKLI”, the protein production was “failed”.

For “MARLNVNPTRMELSRLKKQLTTATRGHKLLKDKQDELMRRFIALVKENNELRIQVEQEVTDALSNFVLANATLNEAFIEELVAIPAEKVELEIIEQNILSVPVPKMIFDYDESVQEAPLDYGYVNSNSELDQAFAKISSILPKLLALANVEKTCQLLSKEIEKTRRRVNALEYMTIPQLEETIYYIQMKLEENERGEITRLIKIKSMNKENLEHHHHHH”, the protein production was “failed”.
